Results on one protein are retold here after FireProtDB (doi:10.1021/bi00458a027).

For this data set the following is noted: Escherichia coli (strain K12), pH 7.8, Urea, CD, Potassium phosphate 10 mM, whole UniProt chain shown.

“And” between values parts separate entries of the source, which are not always exact repeats. Equal values may be shown once.

B1: Tryptophan synthase alpha chain wild type, P0A877 (protein)
chain: MERYESLFAQLKERKEGAFVPFVTLGDPGIEQSLKIIDTLIEAGADALELGIPFSDPLADGPTIQNATLRAFAAGVTPAQCFEMLALIRQKHPTIPIGLLMYANLVFNKGIDEFYAQCEKVGVDSVLVADVPVEESAPFRQAALRHNVAPIFICPPNADDDLLRQIASYGRGYTYLLSRAGVTGAENRAALPLNHLVAKLKEYNAAPPLQGFGISAPDQVKAAIDAGAAGAISGSAIVKIIEQHINEPEKMLAALKVFVQPMKAATRS
Regarding B1, where the note is “4 °C”, the denaturant m value was 3.1 kcal/mol/M and 1.9 kcal/mol/M; the “denaturant midpoint (higher = more stable)” value was 1.63 M and 3.17 M; the unfolding free energy was 5 kcal/mol and 6 kcal/mol. Further, under “25 °C”, the denaturant m value came to 1.2 kcal/mol/M, the “denaturant midpoint (higher = more stable)” value was 4.18 M and the unfolding free energy was 5 kcal/mol.
